# Results taken from publication PMC2981644 (Journal of molecular biology, 2010).
# No end group written: not given here. Alexa 488 = Alexa Fluor 488 dye
# T1: Clathrin heavy chain terminal domain (Rattus norvegicus, UniProt P11442)
# T1 chain: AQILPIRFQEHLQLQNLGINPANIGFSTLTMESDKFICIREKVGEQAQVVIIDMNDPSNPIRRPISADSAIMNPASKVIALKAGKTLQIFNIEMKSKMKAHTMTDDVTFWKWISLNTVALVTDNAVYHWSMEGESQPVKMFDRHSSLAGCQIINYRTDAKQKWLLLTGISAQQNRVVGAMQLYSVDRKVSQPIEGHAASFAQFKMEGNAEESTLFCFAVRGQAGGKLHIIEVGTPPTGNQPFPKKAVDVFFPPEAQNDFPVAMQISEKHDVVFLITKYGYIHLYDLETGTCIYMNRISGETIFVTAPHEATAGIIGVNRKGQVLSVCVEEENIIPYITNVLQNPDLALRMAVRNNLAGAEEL
# B1: AP180 M5 site 1 (residues 667-668 to alanines), fluorescently labelled for AUC (domain or fragment)
# chain: {Alexa 488}-ASTASPAK(Alexa 488)AESSGVIDLFGDAFGSGASETQPAPQAVSSSSASADAAAGFGGSFMAPST
# B2: Alexa488-AP180 M5 (aa 623-680), wild type, fluorescently labelled (domain or fragment)
# chain: {Alexa 488}-ASTASPAK(Alexa 488)AESSGVIDLFGDAFGSGASETQPAPQAVSSSSASADLLAGFGGSFMAPST
# B3: AP180 M5 site 2 (residues 639-642 to alanines), fluorescently labelled for AUC (domain or fragment)
# chain: {Alexa 488}-ASTASPAK(Alexa 488)AESSGVIDAAAAAFGSGASETQPAPQAVSSSSASADLLAGFGGSFMAPST
# B4: clathrin TD, N-terminal domain of the clathrin heavy chain (aa 1-363) (domain or fragment, UniProt P49951 1-363, looked up)
# chain: MAQILPIRFQEHLQLQNLGINPANIGFSTLTMESDKFICIREKVGEQAQVVIIDMNDPSNPIRRPISADSAIMNPASKVIALKAGKTLQIFNIEMKSKMKAHTMTDDVTFWKWISLNTVALVTDNAVYHWSMEGESQPVKMFDRHSSLAGCQIINYRTDAKQKWLLLTGISAQQNRVVGAMQLYSVDRKVSQPIEGHAASFAQFKMEGNAEESTLFCFAVRGQAGGKLHIIEVGTPPTGNQPFPKKAVDVFFPPEAQNDFPVAMQISEKHDVVFLITKYGYIHLYDLETGTCIYMNRISGETIFVTAPHEATAGIIGVNRKGQVLSVCVEEENIIPYITNVLQNPDLALRMAVRNNLAGAEEL
# What was measured:
# [1] = target: B4; experiment: AUC
# [2] = target: T1, Clathrin heavy chain terminal domain; experiment: NMR
# [3] = target: AP180 M5 (aa 623-680), wild type, middle segment of the AP180 C-terminal domain (UniProt Q05140-2 623-680); experiment: NMR titration
# [4] = target: AP180 M5 site 2 (single-site AP180 M5, residues 639-642 mutated to alanines; binding site 1 mutated), Q05140; experiment: NMR titration
# [5] = target: AP180 M5 site 1 (single-site AP180 M5, residues 667-668 mutated to alanines; binding site 2 mutated), Q05140; experiment: NMR titration
binder,measurement,setting,value
B1,Kd,[1],251 ± 3 µM
B2,Kd,[1],173 ± 11 µM
"TAVDAFAAPSPASTASPAKA [AP180 M5 fragment, binding site 1]",Kd,[2],160 µM
B3,Kd,[1],253 ± 8 µM
B4,KD of binding site 1,[3],160 ± 23 µM
same,KD of binding site 2,[3],224 ± 48 µM
same,Kd,[4],246 µM
same,Kd,[5],168 µM
